Here are results for 15 sequences from the DeepSol protein solubility set.

The nature of this data set: soluble on expression in E. coli; label from the status in PepcDB or PDB records.
As for “LYWGDGQVWFDLPDKVTTHDSQLVGNLTELLKSVEHSFVLISPYFIPTEAGTKALTNAAKRGVDITIVTNSLASNDVFAVHGWYAKYREDLLESGIKLWEVKSSAKLKSKWSLTGSSRASLHAKAMTIDDKTLFVGSMNWDPRSAALNTEMAVVIEQPEYVQAFLAKLPSQLKDNAYRLTLRDGDIVWTNTKTGEEYDSEPEAGVFRRLGAWFSGILPIEDQL”, the “soluble on expression in E. coli” value is reported as “not soluble”. Consider “MMSLAWPLFRVTEQAALAAWPQTGCGDKNKIDGLAVTAMRQALNDVAFRGRVVIGEGEIDHAPMLWIGEEVGKGDGPEVDIAVDPIEGTRMVAMGQSNALAVMAFAPRDSLLHAPDMYMKKLVVNRLAAGAIDLSLPLTDNLRNVAKALGKPLDKLRMVTLDKPRLSAAIEEATQLGVKVFALPDGDVAASVLTCWQDNPYDVMYTIGGAPEGVISACAVKALGGDMQAELIDFCQAKGDYTENRQIAEQERKRCKAMGVDVNRVYSLDELVRGNDILFSATGVTGGELVNGIQQTANGVRTQTLLIGGADQTCNIIDSLH”, for which the “soluble on expression in E. coli” value is “soluble”. As to “RPVWYGEPVDIQPEHRDMMLVVDLSGSMAEEDMKTSNGDFVDRLTAVKQVVSDFIDQRKGDRLGLVLFGDHAYLQTPLTFDRNTVREQLDRTVLNLVGQRTAIGEGLGLATKTFIESNAPQRTIILLSDGANTAGVLEPLEAAQLAKDNHAKIYTVGIGAGEMQVRGFFGKQTVNTARDLDEDTLTKIATMTGGQYFRARNADELAEIYQTIDALEP”, the “soluble on expression in E. coli” value is “soluble”. Regarding “LAFVGLTIAIVVTETALLFRRYTALKPADLTRLINSENALVVDLSPSSDFEKGHIAGSRSVVESKFDPESNKLLLSAKQSPLVVVCRNGHISAAAAKRLKNAGFEKVYWLDGGIATWKMAEMPLIK”, the “soluble on expression in E. coli” value was “not soluble”. In the case of “MIVQKELVAIYDYEVPVPEDPFSFRLEIHKCSELFTGSVYRLERFRLRPTFHQRDREDADPLINDALIYIRDECIDERKLRGESPETVIAIFNRELQNIFNQEIE”, the “soluble on expression in E. coli” value is given as “soluble”. For “MGSDKIHHHHHHMQHTIQHLYKTHGDDGLLYAWFLSMHTRVDIILCCQKSENELMLVVNSIYDTLRQLERIANYYDPSSELSQVNQRASTAPVMISQSLYRMISLCTEYHKKTLGCFDVTIHSDNYNQDTIHSIHLYPEAQSVFFQQAGTTINLSGFLKGYALDKIREILKVHIIANALINMGNSSVLALGNHPVGTGWKVSFDDQASTTKNHKTQSILLNNECLTTSGNNSDDRKHIISPSSGKPLEGVRQVTVVTDDGTTGEILSTSLFVANQKQRELIMSEFLPKRVIDLELCQMV”, the “soluble on expression in E. coli” value is “not soluble”. As to “MLLDSIFFRTHPDWIVCCRFLQGVGTDREKREENGRKKTVKITIFSDCMLWANPISLCIRHRAVFNNRNLRMDFSSYTILCLNRLDAWIPAFGIPK”, the “soluble on expression in E. coli” value is “not soluble”. With “NFVAPQDRIATFDNDGTLWSEKPMYFQILFMLDQIKEQAASHPDWKTTKPYSLVLSGQIDKLSLEDVLTMVQKTHSGMSSDEFTSIVQAWISTAKHPATGRPYTDMVYQPMLELLDYLDSNGFKNFIVSGGGNAFMRAWATDVYNIPSERIIGTRLSTEFVNVDGSYQVKRVPGIEVNNDKAEKPQQIYQHIGKRPIASFGNSDGDLQMLQWTTSGT”, the “soluble on expression in E. coli” value is given as “not soluble”.

Take “MGDLIAITYHSNALQSERQMYVWTPPGYTGMGEPLPVLYFYHGFGDTGRSAIDQGRIPQIMDNLLAEGKIKPMLVVIPDTETDAKGIIPEDFVPQERRKVFYPLNAKAADRELMNDIIPLISKRFSVRKDADGRALAGLSQGGYQALVSGMNHLESFGWLATFSGVTTTTVPDEGVAARLNDPAAINQQLRNFTVVVGDKDVVTGKDIAGLKTELEQKKIKFDYQEYPGLNHEMDVWRPAYAAFVQKFKIRHLEHHHHHH”: the “soluble on expression in E. coli” value was “not soluble”.

In the case of “MSHLRIPANWKVKRSTPFFTKENVPAALLSHHNTAAGVFGQLCVMEGTVTYYGFANETATEPEVKVVINAGQFATSPPQYWHRVELSDDARFNIHFWVEEDHQGEEMYQQKKALEHHHHHH”, the “soluble on expression in E. coli” value was “soluble”. The entry for “MPQLSIIIPLFNSCNFISRALQSCINQTLKDIEILIIDDKSKDNSLNMVLEFAKKDPRIKIFQNEENLGTFASRNLGVLHSSSDFIMFLDSDDFLTLDACKIALKEMKKGFDLLCFDAFVHRVKTKQFYRFKQDEFFNQKEFLEFLSKQRHFCWSVWAKCFRKDIILKSFEKIKIDERLSYGEDVLFCYVYFMFCEKIAVFKTCIYHYEFNPNGRYENKNKEILWQNYQDKKKSNELVKKLCLNFKNNDFHKKLFEVLEKEEFDLQRRVDEARNLEHHHHHH” is “soluble”; for “MTLTPEASKSVAQPPTQAPLTQEEAIASLGRYGYGWADSDVAGANAQRGLSEAVVRDISAKKNEPDWMLQSRLKALRIFDRKPIPKWGSNLDGIDFDNIKYFVRSTEKQAASWDDLPEDIRNTYDRLGIPEAEKQRLVAGVAAQYESEVVYHQIREDLEAQGVIFLDTDTGLREHPDIFKEYFGTVIPAGDNKFSALNTAVWSGGSFIYVPPGVHVDIPLQAYFRINTENMGQFERTLIIADEGSYVHYVEGCLPAGELITTADGDLRPIESIRVGDFVTGHDGRPHRVTAVQVRDLDGELFTFTPMSPANAFSVTAEHPLLAIPRDEVRVMRKERNGWKAEVNSTKLRSAEPRWIAAKDVAEGDFLIYPKPKPIPHRTVLPLEFARLAGYYLAEGHACLTNGCESLIFSFHSDEFEYVEDVRQACKSLYEKSGSVLIEEHKHSARVTVYTKAGYAAMRDNVGIGSSNKKLSDLLMRQDETFLRELVDAYVNGDGNVTRRNGAVWKRVHTTSRLWAFQLQSILARLGHYATVELRRPGGPGVIMGRNVVRKDIYQVQWTEGGRGPKQARDCGDYFAVPIKKRAVREAHEPVYNLDVENPDSYLAYGFAVHNCTAPIYKSDSLHSAVVEIIVKPHARVRYTTIQNWSNNVYNLVTKRARAEAGATMEWIDGNIGSKVTMKYPAVWMTGEHAKGEVLSVAFAGEDQHQDTGAKMLHLAPNTSSNIVSKSVARGGGRTSYRGLVQVNKGAHGSRSSVKCDALLVDTVSRSDTYPYVDIREDDVTMGHEATVSKVSENQLFYLMSRGLTEDEAMAMVVRGFVEPIAKELPMEYALELNRLIELQMEGAVG” it is “not soluble”; for “MWINKVIKKRFETDIVQHVHIAKGTAMFQGVRLAVRCFVVDGVLIDTGAKSMENEFTSFFQQQDIDQVVITHFHEDHTGCAAFLQRSMGLPIYMNEPMIEYCRQKADYPLYRKIFWGKRDPFAAKPIGATFSSRNATWDVIPTPGHAIDHVVFLNRETGQLFSGDLYCQEKTKVILREEDIPTIIASLQHVLTYDFGDVFCAHAGYLPNGREALQRKLDYLLELQGTIIDLYEKGTPPKQIQALLFPKKYPIIFFSGGEWDSLHIVRSVIRDYEAKQASLEHHHHHH” it is “soluble”. As to “AHKLFIGGLPNYLNDDQVKELLTSFGPLKAFNLVKDSATGLSKGYAFCEYVDINVTDQAIAGLNGMQLGDKKLLVQRASVGAKNA”, the “soluble on expression in E. coli” value was “soluble”. “MGSDKIHHHHHHMKHIHIIGIGGTFMGGIAAIAKEAGFEVSGCDAKMYPPMSTQLEALGIGVYEGFDTAQLDEFKADVYVIGNVAKRGMDVVEAILNRGLPYISGPQWLAENVLHHHWVLGVAGTHGKTTTASMLAWVLEYAGLAPGFLIGGVPENFSVSARLPQTPRQDPNSQSPFFVIEADEYDTAFFDKRSKFVHYRPRTAVLNNLEFDHADIFADLGAIQTQFHHLVRTVPSEGLIVCNGRQQSLQDTLDKGCWTPVEKFGTEHGWQAGEANADGSFDVLLDGKKAGHVAWSLMGGHNRMNALAVIAAARHAGVDIQTACEALSTFKNVKRRMEIKGTANGITVYDDFAHHPTAIETTIQGLRQRVGGARILAVLEPRSNTMKLGTMKAALPASLKEADQVFCYAGGADWDVAEALAPLGGRLHVGKDFDAFVAEIVKNAEAGDHILVMSNGGFGGIHTKLLDALR”: the “soluble on expression in E. coli” value is “not soluble”.
